For one data set, the target named is T1, human ROR1-Fz (Homo sapiens, UniProt Q01973).
T1 construct: Frizzled (Fz, residues 165-305); HIS6 (C); purchased Acro Biosystems; host or cells: HEK293
Kind of data set: Biacore off-rate and kinetic analysis, ROR1 frizzled domain. In kind it is binding. Particulars: for kd1 / ka1: Sample ROR1 Fz, SPR; for ka1: 1-1 Langmuir; for Biacore human ROR1-Fz ka / Biacore human ROR1-Fz kd: Table 11 (SP34 light chain). The method, then: Anti-Fc polyclonal antibodies were immobilized onto a CM5 chip (GE Life Sciences) using amine coupling chemistry (from Amine Coupling Kit, GE Life Sciences). The immobilization steps were carried out at a flow rate of 25 μL/min in 1×HBS-EP+ buffer (GE Life Sciences; 10× Stock diluted before use). The sensor surfaces were activated for 7 min with a mixture of NHS (0.05 M) and EDC (0.2 M). The Anti-Fc antibodies were injected over all 4 flow cells at a concentration of 25 ug/ml in 10 mM sodium acetate, pH 4.5, for 7 min. Ethanolamine (1 M, pH 8.5) was injected for 7 min to block any remaining activated groups. An average of 12,000 response units (RU) of capture antibody was immobilized on each flow cell.
Off-rate and kinetic binding experiments were performed at 25° C. using 1×HBS-EP+ buffer. Test and control antibodies were injected over the anti-Fc surface at concentrations of 5-10 μg/mL for 12 seconds at a flow rate of 10 μL/min on flow cells 2, 3 and 4, followed by a buffer wash for 30 seconds at the same flow rate. Kinetic characterization of antibody samples was carried out with a range of antigen concentrations from 1-100 nM and 1 injection of 0 nM antigen (for example, 100, 50, 25, 6.25, 1.56 and 0 nM). After capturing ligand (antibody) on the anti-Fc surface, the analyte (hROR1, Fz or Kr domains, Acro Biosystems, Delaware) was bound for 180 seconds, followed by a 600 second dissociation phase at a flow rate of 50 μL/min. Between each ligand capture and analyte binding cycle, regeneration was carried out using 2 injections of 10 mM Glycine pH 2.0 for 30 seconds at 30 μL/min, followed by a 30 second buffer wash step.
The data was fit with the Biacore T200 Evaluation software, using a 1-1 Langmuir binding model. KD (affinity, nM) was determined as a ratio of the kinetic rate constants calculated from the fits of the association and dissociation phases.
For anti-CD3-LC-containing IgGs that had detectable ROR1-binding in ELISA (1944-A07 and 1987-C05 variants), those antibodies were further tested for binding by surface plasmon resonance (SPR). Binding kinetics were assessed to the ROR1-frizzled domain (hROR1-Fz) or the ROR1-extracellular domain (hROR1) for 1944-A07 and 1987-C05 variants, respectively. Briefly, anti-ROR1 antibodies were captured via anti-human Fc polyclonal antibodies immobilized to a CM5 chip, and ROR1 recombinant proteins were flowed across the surface to assess binding kinetics. hROR1 or hROR1-Fz domain (Acro Biosystems, Delaware) binding was tested at 100, 50, 25, 6.25, 1.5625 nM. The data was fit with the Biacore™ T200 Evaluation software, using a 1-1 Langmuir binding model. KD (affinity, nM) was determined as a ratio of the kinetic rate constants calculated from the fits of the association and dissociation phases.
Background: SPR reads the build-up and loss of mass on a sensor chip optically.

Data set [1] can be described thus: Differential scanning fluorimetry (protein thermal shift; TM1 Fc, TM2 Fab). In kind it is physicochemical. Particulars: melting temperature of the Fab domain; Table 11. How it is done:
A protein thermal shift assay was carried out by mixing the protein to be assayed with an environmentally sensitive dye (SYPRO Orange, Life Technologies Cat #S-6650) in a phosphate buffered solution (PBS), and monitoring the fluorescence of the mixture in real time as it underwent controlled thermal denaturation. Protein solutions between 0.2-2 mg/mL were mixed at a 1-1 volumetric ratio with a 1-500 PBS-diluted solution of SYPRO Orange (SYPRO Orange stock dye is 5000× in DMSO). 10 μL aliquots of the protein-dye mixture were dispensed in quadruplicate in a 384-well microplate (Bio-Rad Cat #MSP-3852), and the plate was sealed with an optically clear sealing film (Bio-Rad Cat #MSB-1001) and placed in a 384-well plate real-time thermocycler (Bio-Rad CFX384 Real Time System). The protein-dye mixture was heated from 25° C. to 95° C., at increments of 0.1° C. per cycle (˜1.5° C. per minute), allowing 3 seconds of equilibration at each temperature before taking a fluorescence measurement. At the end of the experiment, the transition melting temperatures (TM1 and TM2) were determined using the Bio-Rad CFX manager software. TM1 represents the melting temperature of the Fc domain. TM2 represents the melting temperature of the Fab domain.
For the thermal stability of an antibody, the first melting peak (Tm1) coincides with the unfolding of the CH2 domain (FC stability), while the second melting peak (Tm2) occurs upon unfolding of the Fab domain.

T1 sequence (Q01973 165-305): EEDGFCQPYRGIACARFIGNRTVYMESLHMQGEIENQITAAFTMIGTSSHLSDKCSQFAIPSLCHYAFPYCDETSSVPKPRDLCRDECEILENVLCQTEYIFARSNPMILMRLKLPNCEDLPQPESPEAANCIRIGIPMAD

B1: 1944-A07 HC w/hUCHT1 LC3: HC of lead antibody 1944-A07 co-expressed with LC "derived from anti-CD3 antibodies": hUCHT1-LC3 (antibody, V domains shown)
VH: EVQLVESGGGLVQPGGSLRLSCAASGFNITGYYIHWVRQAPGKGLEWVGYISPNSGSTYYADSVKGRFTISADTSKNTAYLQMNSLRAEDTAVYYCARDSRRYVRPFDYWGQGTLVTVSS
VL: DIQMTQSPSTLSASVGDRVTITCRASQDIRNYLNWYQQKPGKAPKLLIYYTSRLHSGVPSRFSGSGSGTEYTLTISSLQPDDFATYYCQQGNTLPWTFGGGTKVEIK
In the data set with human ROR1-Fz, B1 had a kd1 of 0.119 s⁻¹ and a ka1 of 1.85e+06 M⁻¹ s⁻¹.

B2: SRP2196-A06 (antibody, V domains shown)
VH: EVQLVESGGGLVQPGGSLRLSCAASGFNITGYYIHWVRQAPGKGLEWVGQISPNSGSTHQADSVKGRFTISADTSKNTAYLQMNSLRAGDTAVYYCARDSRRYVRGWDYWGQGTLVTVSS
VL: QAVVTQESALTTSPGETVTLTCRSSTGAVTTSNYANWVQEKPDHLFTGLIGGTNKRAPGVPARFSGSLIGDKAALTITGAQTEDEAIYFCALWYSNLWVFGGGTKLTVL
As to B2, the TM2 in data set [1] stood at 70 °C. In the data set with human ROR1-Fz, the “Biacore human ROR1-Fz ka” value amounted to 180000 M⁻¹ s⁻¹ and the “Biacore human ROR1-Fz kd” value worked out at 0.00069 s⁻¹.

B3: SRP2196-A07 (antibody, V domains shown)
VH: EVQLVESGGGLVQPGGSLRLSCAASGFNITGYYIHWVRQAPGKGLEWVGQISPNSGSTYYADSVKGRFTISADTSKNTAYLQMSSLRAEDTAVYYCARDSRRYVRGWDYWGQGTLVTVSS
VL: QAVVTQESALTTSPGETVTLTCRSSTGAVTTSNYANWVQEKPDHLFTGLIGGTNKRAPGVPARFSGSLIGDKAALTITGAQTEDEAIYFCALWYSNLWVFGGGTKLTVL
B3: the TM2 in data set [1] stood at 74 °C. Moreover, in the data set with human ROR1-Fz, the “Biacore human ROR1-Fz ka” value turned out to be 186000 M⁻¹ s⁻¹ and the “Biacore human ROR1-Fz kd” value is 0.00064 s⁻¹.

B4: 1944-A07 HC w/hSP34 LC3: HC of lead antibody 1944-A07 co-expressed with LC "derived from anti-CD3 antibodies": hSP34-LC3 (antibody, V domains shown)
VH: EVQLVESGGGLVQPGGSLRLSCAASGFNITGYYIHWVRQAPGKGLEWVGYISPNSGSTYYADSVKGRFTISADTSKNTAYLQMNSLRAEDTAVYYCARDSRRYVRPFDYWGQGTLVTVSS
VL: QTVVTQEPSLTVSPGGTVTLTCGSSTGAVTSGYYPNWFQQKPGQAPRGLIGGTKFLAPGTPARFSGSLLGGKAALTLSGVQPEDEAEYYCALWYSNRWVFGGGTQLTVTG
In the data set with human ROR1-Fz, B4 registered a kd1 of 0.00228 s⁻¹ and a ka1 of 360000 M⁻¹ s⁻¹.

B5: SRP2196-B05 (antibody, V domains shown)
VH: EVQLVESGGGLVQPGGSLRLSCAASGFNITGYYIHWVRQAPGKGLEWVGQISPNSGATYHADSVKGRFTISADTSKNTAYLQMNSLRAEDTAVYYCARDSRRYVRGWDYWGQGTLVTVSS
VL: QAVVTQESALTTSPGETVTLTCRSSTGAVTTSNYANWVQEKPDHLFTGLIGGTNKRAPGVPARFSGSLIGDKAALTITGAQTEDEAIYFCALWYSNLWVFGGGTKLTVL
Regarding B5, the TM2 in data set [1] was 73 °C.

B6: SRP2196-A08 (antibody, V domains shown)
VH: EVQLVESGGGLVQPGGSLRLSCAASGFNITGYYIHWVRQAPGKGLEWVGYISPNSGSTYKADSVKGRFTISADTSRNTAYLQMNSLRAEDTAVYYCARDSRRYVRSWDYWGQGTLVTVSS
VL: QAVVTQESALTTSPGETVTLTCRSSTGAVTTSNYANWVQEKPDHLFTGLIGGTNKRAPGVPARFSGSLIGDKAALTITGAQTEDEAIYFCALWYSNLWVFGGGTKLTVL
Consider B6, for which the TM2 in data set [1] came to 69 °C. In addition, in the data set with human ROR1-Fz, the “Biacore human ROR1-Fz ka” value was 183000 M⁻¹ s⁻¹ and the “Biacore human ROR1-Fz kd” value was 0.00078 s⁻¹.

B7: SRP2196-A01 (antibody, V domains shown)
VH: EVQLVESGGGLVQPGGSLRLSCAASGFNITGYYIHWVRQAPGKGLEWVGQISPNSGYTYYADSVKGRFTISADTSKNTAYLQMNSLRAEDTAVYYCARDSRRYVRGWDYWGQGTLVTVSS
VL: QAVVTQESALTTSPGETVTLTCRSSTGAVTTSNYANWVQEKPDHLFTGLIGGTNKRAPGVPARFSGSLIGDKAALTITGAQTEDEAIYFCALWYSNLWVFGGGTKLTVL
As to B7, the TM2 in data set [1] was 74 °C.

B8: SRP2196-A03 (antibody, V domains shown)
VH: EVQLVESGGGLVQPGGSLRLSCAASGFNITQYHIHWVRQAPGKGLEWVGYISPNSGSTHEADSVKGRFTISADTSKNTAYLQMNSLRAEDTAVYYCARDSRRYVRGWDYWGQGTLVTVSS
VL: QAVVTQESALTTSPGETVTLTCRSSTGAVTTSNYANWVQEKPDHLFTGLIGGTNKRAPGVPARFSGSLIGDKAALTITGAQTEDEAIYFCALWYSNLWVFGGGTKLTVL
For B8, the TM2 in data set [1] is 70 °C. In the data set with human ROR1-Fz, the “Biacore human ROR1-Fz ka” value stood at 169000 M⁻¹ s⁻¹ and the “Biacore human ROR1-Fz kd” value worked out at 0.000275 s⁻¹.

B9: SRP2196-A04 (antibody, V domains shown)
VH: EVQLVESGGGLVQPGGSLRLSCAASGFNISPYYIHWVRQAPGKGLEWVGQIYPISGHTYQADSVKGRFTISADTSKNTAYLQMNSLRAEDTAVYYCARESRRYVGPFGYWGQGTLVTVSS
VL: QAVVTQESALTTSPGETVTLTCRSSTGAVTTSNYANWVQEKPDHLFTGLIGGTNKRAPGVPARFSGSLIGDKAALTITGAQTEDEAIYFCALWYSNLWVFGGGTKLTVL
As to B9, in the data set with human ROR1-Fz, the “Biacore human ROR1-Fz ka” value was 139000 M⁻¹ s⁻¹ and the “Biacore human ROR1-Fz kd” value was 0.000343 s⁻¹.

B10: SRP1944-A07 w SP34 LC3 (antibody, V domains shown)
VH: EVQLVESGGGLVQPGGSLRLSCAASGFNITGYYIHWVRQAPGKGLEWVGYISPNSGSTYYADSVKGRFTISADTSKNTAYLQMNSLRAEDTAVYYCARDSRRYVRPFDYWGQGTLVTVSS
VL: QTVVTQEPSLTVSPGGTVTLTCGSSTGAVTSGYYPNWFQQKPGQAPRGLIGGTKFLAPGTPARFSGSLLGGKAALTLSGVQPEDEAEYYCALWYSNRWVFGGGTQLTVTG
Consider B10, for which, in the data set with human ROR1-Fz, the “Biacore human ROR1-Fz ka” value was 597000 M⁻¹ s⁻¹ and the “Biacore human ROR1-Fz kd” value was 0.0085 s⁻¹.

B11: SRP2196-A05 (antibody, V domains shown)
VH: EVQLVESGGGLVQPGGSLRLSCAASGFNITNYYIHWVRQAPGKGLEWVGYISPNSGATYQADSVKGRFTISADTSKNTAYLQMNSLRAEDTAVYYCARDSRRYVRSWDYWGQGTLVTVSS
VL: QAVVTQESALTTSPGETVTLTCRSSTGAVTTSNYANWVQEKPDHLFTGLIGGTNKRAPGVPARFSGSLIGDKAALTITGAQTEDEAIYFCALWYSNLWVFGGGTKLTVL
As to B11, the TM2 in data set [1] stood at 71 °C. For the same molecule, in the data set with human ROR1-Fz, the “Biacore human ROR1-Fz ka” value came to 175000 M⁻¹ s⁻¹ and the “Biacore human ROR1-Fz kd” value worked out at 0.000682 s⁻¹.

B12: SRP2196-A02 (antibody, V domains shown)
VH: EVQLVESGGGLVQPGGSLRLSCAASGFNITGYYIHWVRQAPGKGLEWVGQISPNSGATHDADSVKGRFTISADTSKNTAYLQMNSLRAEDTAVYYCARDSRRYVRGWDYWGQGTLVTVSS
VL: QAVVTQESALTTSPGETVTLTCRSSTGAVTTSNYANWVQEKPDHLFTGLIGGTNKRAPGVPARFSGSLIGDKAALTITGAQTEDEAIYFCALWYSNLWVFGGGTKLTVL
For B12, the TM2 in data set [1] was found to be 71 °C.
